{
  "source": "the DeepSol protein solubility set",
  "data": [
    {"assay": "soluble on expression in E. coli; label from the status in PepcDB or PDB records", "values": [
      {"sequence": "MSLSSASSKRSVMTLFSNKDDIYCHQVKIVLAEKGVLYENAEVDLQALPEDLMELNPYGTVPTLVDRDLVLFNSRIIMEYLDERFPHPPLMQVYPVSRAKDRLLMLRIEQDWYPTLAKAENGTEKEKTSALKQLKEELLGIAPIFQQMPYFMNEEFGLVDCYVAPLLWKLKHLGVEFTGTGSKAIKAYMERVFTRDSFLQSVGEAAPKNLMDDKEGHHHHHH", "soluble on expression in E. coli": "soluble"},
      {"sequence": "NVFMRKKDNTIDYRYFIEPNIMTSNIDDLLLEKPVAFQLEQFQKELIDSNVNPQLVQLVVDDATI", "soluble on expression in E. coli": "not soluble"},
      {"sequence": "MALAPAAGCLFDDDNSFTYDVTWYCGMDECTRTEEVQRYDRARQDYSTLTITSSVDDTLFTDGIIAVSNEVPREDCRLVHGLNFLGQDIEPARFCYTPDGFELRVTIPGDGDENSTTWLLRTN", "soluble on expression in E. coli": "not soluble"},
      {"sequence": "MSSEIAYSNTNTNTENENRNTGAGVDVNTNANANANATANATANATANATAELNLPTVDEQRQYKVQLLLHINSILLARVIQMNNSLQNNLQNNINNSNNNNIIRIQQLISQFLKRVHANLQCISQINQGVPSAKPLILTPPQLANQQQPPQDILSKLYLLLARVFEIW", "soluble on expression in E. coli": "not soluble"},
      {"sequence": "MSLRRILITGANGFVGQILCSMLRQAGHHVIALVGAESALSSHADESVRCDIRDASGLEQALCRAAPTHVVHLAAITHVPTSFNNPVLTWQTNVMGSVNLLQALQRSAPEAFVLFVSSSEVYGETFKQGTALGEDSACKPMNPYAASKLAAEAAFNEYFRQGRKGIVVRPFNHIGARQSPDFATASFARQIALIEAGKQAPQLKVGNLQAARDFLDVHDVCDAYVALLQLADEQERYPGCLNICRGEPTSLQTLLTQLMALSSSVIEVTIDPDRMRPSDIPSAFGNNSAMRCATGWKPKTKLDDTLEALLNYWRHEVISAEGHHHHHH", "soluble on expression in E. coli": "soluble"},
      {"sequence": "MIPKSTGYLADLNIHWKNYIQYLHKIEVAPKTKLQLLHDVANRIFIVESGSVRMGFEKDGKDITLQFFFEDELVASVESLFNQTPSKYFIETIEHSTIYYLTKEMLEVMALKLPEMANITQDILMSRLIYYSNHLHSYISETPEQRFNKLIETRPYIFMRVSQRHIASYLGITNVSLSRIKARKSVVYDQQPATVSVAEADNEEYLKS", "soluble on expression in E. coli": "not soluble"},
      {"sequence": "MGSDKIHHHHHHMFSSQKLKERRKKLGLSQAQTADKLGISRPSYFNWEIGKTKPNQKNLDKLAHLLKVDSAYFLSQHDIVEIYTRLNESNKTKTLKYSQYLLEQQDKERNLMKNKRYPYRVYEKLSAGTGYSYFGDGNFDTVFYDEEIDHDFASWIFGDSMEPIFLNGEVALIKQTGFDYDGAIYAIDWDGQTYIKKVYREETGLRLVSLNKKYADKFAPYDENPRIIGLIVGNFIPLEG", "soluble on expression in E. coli": "not soluble"},
      {"sequence": "MLICNDKSNPKTLLEEIMALRPWRKGPFEISQIKIDSEWDSSIKWDLVKNATPLKDKVVADVGCNNGYYLFKMLEHGPKSLVGFDPGVLVKKQFEFLAPFFDKEKKIIYESLGVEDLHEKYPNAFDVIFCLGVLYHRKSPLEALKALYHALKIKGELVLDTLIIDSPLDIALCPKKTYAKMKNVYFIPSVSALKGWCERVGFENFEILSVLKTTPKEQRKTDFILGQSLEDFLDKTDPSKTLEGYDAPLRGYFKMLKPSKR", "soluble on expression in E. coli": "not soluble"},
      {"sequence": "MHHHHHHSSGRENLYFQGSTRGKVVLHTSLGDLDVELWARECPLACRNFVQLCLEGYYVNTIFHRVVKDFIVQGGDPTGTGRGGADTTFDGKPFDVETHPRLKFRYRGLVGVANLGRSSKDAENDERGRSLGTNGNQFFITLARADVLNNAYTLFGKVTGHTLYNLMKFNDLEVGKEDRPMTPPFIKSVDVLWNPFEDLVPRRLPDAPPAQKDERKRARAAGGRTTEGRARS", "soluble on expression in E. coli": "soluble"},
      {"sequence": "MFSKTVVVLLMVVPAISLAQPASPLVLKKSHGAFCHLCEDLIKDGKEAGDVALDVWLDEEIGSRCKDFGVLASECFKELKVAEHDIWEAIDQEIPEDKTCKEAKLC", "soluble on expression in E. coli": "not soluble"},
      {"sequence": "QTVQSTSKGSDYIVAVTACTTGIAHTYMAEEALKKKAAEMGVGIKVETNGASGVGNKLTSSDIARAKGVIIAADKAVEMDRFDGKPLVSRPVADGIKKSEDLINIILDNKAQTY", "soluble on expression in E. coli": "not soluble"},
      {"sequence": "MEYFNAGGGGSTGNGSTDPYAVIPQQFGNGGQQPQQQVFTDYQQDGSATDYETYQQQQQQYRAAQASQQSSSMYYQNQMTAAQANYFPIHSASEHDFLGPQQPPSATTSVSGAAGAPYQSASGGNKEFMMQHQQRRGNQSGQQQQNQPSQQNNQQQQNQGARQQHPQQMQQQQQSNQSAHFMHQQLQAVQQQQAQQMHHRLQGAPINPQQFMVPPPTMMQPQQMQQAQQQQAQQMHQMQIHHQQHPQMMQQHAQQGYHPHQQNQQHQAGQHQQSHHQSQNHNQHRNHNQSHSGPHHIPQNLMMPRCMLKDWPIRCVVEGKYHAVIIGPNGSTIKDIASSTRCRVDFVNLSKKERTVLGNNDRILTVHGVAEQATKAVARILDVIQSEAVKDDVNVGADTVLRMRAHNQLCGRLIGKAGSSIKEIMQKTGTNITVTKYIEPPGGISGLTANELLGLMERTIMVRGPSIEAVVQAEALISAKLKKCYESDSQLRAQSMQCPMPPMMMPPILPPGASSSAVSAPHFIPTPPGVLQIQPGTTNLRQVRMWVPDSMIGALIGAKGKNIKMIIRDTGASVKIEAPEEKTQREAEEAEKKRKLDETDSGCEGVASGDHPQEFLEDNATINSSDAIEEKPKPVSERMVTINGDDLQLLKAQSYVFSKIAETSSSLPSSGMDGDRSHMLRIRTEVSVPTRIIGRIIGKGGQNVRELQRITGAVVKIPEEERNGGEVYRHDDGLEEDMTMIRTIGNMYSTHNVQFRLAHLVNEYYRSGDHRNKSSDYKGGRPHSAPSSGQEKDGSALEKMDQLGTIAPISNSNRASPKSVSPPKSKSP", "soluble on expression in E. coli": "not soluble"},
      {"sequence": "MSDEEEEDVNFKPGTEISSTKANYTVVRLLGEGGFGAVYLVQDNKSKKQSAMKVERKIEKRKHSKLKMEIAILKLVGSGKHFTQIVDRGKKDKEGFFFLVMELVGKSLADLKADRPDKVFSFATGLGVSCQCLEAVEELHKTGFIHRDLKPQNYACGLDEKRHNIYILDFGIARKYLNTKNELKTPRETVGFKGTVRFAPIACHRNTEMGPKDDCESWFYLLLDLIVPSGLPWRKLSDKHEVLKEKEECRKDKRSSLFAGLRQTDYLSKVLDYIDGRAYQDRVDYQFIYKNLAEACKVCNLDIDSPYDWELQKPEKTSKEPTSSKMP", "soluble on expression in E. coli": "not soluble"},
      {"sequence": "MGHHHHHHSHMKGFTATLFLWTLIFPSCSGGGGGKAWPTHVVCSDSGLEVLYQSCDPLQDFGFSVEKCSKQLKSNINIRFGIILREDIKELFLDLALMSQGSSVLNFSYPICEAALPKFSFCGRRKGEQIYYAGPVNNPEFTIPQGEYQVLLELYTEKRSTVACANATIMCS", "soluble on expression in E. coli": "not soluble"},
      {"sequence": "STFEELNGDYSIERMDSVIKALEEVLRSALPQGCITVGVYEAAKSLNVDPDNVVLCILATDDDDVKDVALQIHFTLIQAFCCENDINILRVNNTRRLANILGGAGMHGSEQMDLHCILVTVPHASTWKNPALGKVNRFCRESRCMDQWVPIINLPER", "soluble on expression in E. coli": "soluble"},
      {"sequence": "SLRAEKSDDPLYPLTIIHLNDFHARFEETNTVSTRCKPDEGERCIGGYGRVVSRVKSLQQEYADRNPIYLNAGDSFQGTIWYTLLRWNVTAYFLNLLPADAMTLGNHEFDHGVEGLVPFLGAIDSPMLVANIDDREEPTLQGKYQRNVVLERGGRKIGIIGVIHHATDTLSMTDRVRFLDEVQCINQEATALKQLGVDIIVVLSHCGFTIDQQIARECPDVDVVVGGHSHTLLHTGTVADWPDVPAGSFPFVVEQAAGRRVLIVQAGSFTKYLGHLVVYFDERGEAVRWEGNTEYLDESFPKDEQIERELVPWRTQVDALAVRPVGVSRVFLSKPACRTGECNFGSFVADAFVDYYVGRGEAEHEWTYAAIGITNDGGLRTSLAPGTLTYEDLVTAIPYENTVDTFELRGQYLLDALEYSASRYDTADVLQFAGLRVVFNLTRPALQRVQRVDVRCRVCRIPRYEPLDVNATYRIAIAAWIGSGGNGYTMFGQHRTNVRVGPLDIDVFERYVAKMSPIMQGTDGRMVFVR", "soluble on expression in E. coli": "not soluble"},
      {"sequence": "MSLENRFDLRCYVVTGAGSVDEVVHTASAAARGGAGVVQVRSKPISPEAMRELASKVALEVARCSPTTRVLIDDHLHVASSLMREGLPIHGVHLGQDDMSVLEARELLGPEAIIGLTTGTLELVAAANELSDVLDYIGAGPFRKTPTKDSGRPPIGLAGYPPLVELSKVPIVAIGDVTPADVRALSATGVAGVAMVRAFSESDDPQQVAENVVANFELGRLSEGHHHHHH", "soluble on expression in E. coli": "soluble"},
      {"sequence": "MNYNIRGENIEVTPALKDHVERKIGKLERYFDHSVDADVNVNLKFYNDKESKVEVTIPMTDLALRSEVHNEDMYNAIDLATNKLERQIRKHKTKVNRKFREQGSPKYLLANGLGSDTDIAVQDDIEEEESLDIVRQKRFNLKPMDSEEAILQMNMLGHNFFVFTNAETNLTNVVYRRNDGKYGLIEPTELEHHHHHH", "soluble on expression in E. coli": "soluble"},
      {"sequence": "MSMSNGDAQKDTKTTAETKQTEQKTADSKKSNTQNSEFSLESQYFNDIKKVDGLETIQNPENILALVNKQYALPGNYEPSDLVIPDVEFSFEEKIQKRYIRKEAADALKTMFDAAKKEGYELAAVSGYRSYDRQKVIFDNEVSLKGERKAKEAVAYPGESEHQTGLAMDISSRSNGFELNEAFGSTADGKWVQDNAYKYGFIIRYPKNKEDITKYEYEPWHLRYVGKKAAKVIQDNDLTLEEYFEKVKKILEHHHHHH", "soluble on expression in E. coli": "not soluble"},
      {"sequence": "GPGSMDESNRVPTGEAPSDEPPLKVRRHEGGHGELRETSSGDTNPQGATLFIRCTSIHGRGELLNGFISEHREALGVAKWYNVAGDESDGRCVPTLRTDAPFECVYVRSSRKPYFLLEFNEKGDVAKKFVEKLVGLRNTLYKGSPVFVEVAKGGLTVATERLKLEKRDAARRSATAVPLSFSSDKPTGPTAFVPRAVRKR", "soluble on expression in E. coli": "soluble"},
      {"sequence": "DVQLLESGPGLVAPSQSLSITCTVSGFSLTNYGVDWVRQPPGKGLEWVGVIWSGGSTNYNSALMSRLSISKDNSKSQVFLKMNSLQTDDTAVYYCAKHWGGYYIPYGMDHWGQGTTVTVSSASTKGPSVFPLAPSSKSTSGGTAALGCLVKDYFPEPVTVSWNSGALTSGVHTFPAVLQSSGLYSLSSVVTVPSSSLGTQTYICNVNHKPSNTKVDKKVEPKSCDKTHT", "soluble on expression in E. coli": "soluble"},
      {"sequence": "MGSDKIHHHHHHMTKEINPFIVTGKIEPEYFCDRVKESERLVKSLTNGNNLVIISPRRMGKTGLIRFCYEKPEIKEEYYTFFIDILHTSSLREFTYLLGKEIYETLLPRSKKMASLFIQTVKSINGKFGFDPLTNLPTFNLELGDIDRPEYTLEEIFQCLIAADKPCIVAIDEFQQIAKYPEKNIEALLRTHIQTIENSNFIFAGSERHMMQEMFLSSSRPFYHSADILELKAIVPEIYIPFIADHFQKRKRHIEIENIEKVYRLFKGHTFYIQKTFNEAFADTPKGKECTLEIIKTAIDNLIAYNDTIFREILSNIPEKQKELLYAIAKVGEAENVTSAKFIKRYSLTSASSVQSATKKLLEKDIITEINKVYSVTDKFFGMWINTIYGNKYTL", "soluble on expression in E. coli": "not soluble"}
    ]}
  ]
}
